Results from patent US20030100501A1 (CASE WESTERN RESERVE UNIVERSITY, published 2003).
Square brackets hold non-standard residues; d marks the D form. Ends that are not written are not given here. Nle = CCCC[C@H](N)C(=O)O

Assays:
[1] = molecular target: wild-type CFTR (cystic fibrosis transmembrane conductance regulator) (UniProt P13569 1-1480, limits assumed); test: cell-based or functional assay
mutant G551D CFTR = mutant G551D CFTR (UniProt P13569 1-1480, limits assumed); test: cell-based or functional assay
mutant G551D CFTR, sequence (P13569 whole entry G551D): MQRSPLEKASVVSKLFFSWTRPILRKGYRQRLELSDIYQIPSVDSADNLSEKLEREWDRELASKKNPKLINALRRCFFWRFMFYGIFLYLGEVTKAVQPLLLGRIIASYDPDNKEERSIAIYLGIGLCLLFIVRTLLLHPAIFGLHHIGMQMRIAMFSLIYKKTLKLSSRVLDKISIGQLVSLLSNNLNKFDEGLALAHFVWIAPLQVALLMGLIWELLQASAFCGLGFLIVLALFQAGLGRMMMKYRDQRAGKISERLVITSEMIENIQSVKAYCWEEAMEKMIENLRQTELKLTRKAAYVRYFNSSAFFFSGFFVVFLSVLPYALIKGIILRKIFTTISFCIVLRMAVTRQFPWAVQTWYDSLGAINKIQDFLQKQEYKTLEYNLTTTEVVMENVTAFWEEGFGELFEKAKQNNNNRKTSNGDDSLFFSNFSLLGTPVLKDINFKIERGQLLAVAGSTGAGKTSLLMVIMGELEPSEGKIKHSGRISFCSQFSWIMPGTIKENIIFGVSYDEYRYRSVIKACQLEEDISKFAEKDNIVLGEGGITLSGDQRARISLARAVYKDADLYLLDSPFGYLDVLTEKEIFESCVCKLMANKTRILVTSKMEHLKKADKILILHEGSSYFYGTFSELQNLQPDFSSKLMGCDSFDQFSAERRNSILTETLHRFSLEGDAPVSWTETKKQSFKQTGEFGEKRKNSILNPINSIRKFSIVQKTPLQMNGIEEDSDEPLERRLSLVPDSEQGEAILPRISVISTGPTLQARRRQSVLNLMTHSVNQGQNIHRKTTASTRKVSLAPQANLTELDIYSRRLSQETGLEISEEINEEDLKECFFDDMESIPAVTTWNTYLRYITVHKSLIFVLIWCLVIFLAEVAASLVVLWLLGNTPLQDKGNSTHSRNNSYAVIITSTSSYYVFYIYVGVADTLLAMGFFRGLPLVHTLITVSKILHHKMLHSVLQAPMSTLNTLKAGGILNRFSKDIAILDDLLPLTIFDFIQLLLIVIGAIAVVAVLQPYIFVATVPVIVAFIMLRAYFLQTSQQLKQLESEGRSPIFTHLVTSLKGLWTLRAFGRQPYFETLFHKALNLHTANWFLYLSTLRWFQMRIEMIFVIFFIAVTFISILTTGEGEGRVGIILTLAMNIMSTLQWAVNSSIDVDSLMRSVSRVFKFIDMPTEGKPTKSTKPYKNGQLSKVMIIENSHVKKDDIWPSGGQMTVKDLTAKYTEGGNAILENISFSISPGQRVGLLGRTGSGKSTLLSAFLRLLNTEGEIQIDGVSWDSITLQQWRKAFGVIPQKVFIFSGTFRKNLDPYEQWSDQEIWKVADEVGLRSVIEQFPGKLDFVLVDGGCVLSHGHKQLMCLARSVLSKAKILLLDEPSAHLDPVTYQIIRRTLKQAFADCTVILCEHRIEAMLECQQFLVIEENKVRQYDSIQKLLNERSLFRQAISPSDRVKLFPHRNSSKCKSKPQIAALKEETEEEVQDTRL

wild-type CFTR (cystic fibrosis transmembrane conductance regulator), sequence (P13569 whole entry): as the sequence (P13569 whole entry G551D) above, with D551G counted along it

- open probability (Po) of CFTR channels in planar lipid bilayer [1]: 2 fold
- open probability of single wt-CFTR channels in planar lipid bilayer, 4 µM peptide, 5 experiments [1]: ~2 fold
- open probability in planar lipid bilayer (mutant G551D CFTR): ~3 fold
Binder: Ac-GLEISEQINQQNLKQSFFND[Nle]E [Q4N2NEG2 polypeptide]
